This note sets out measurements from publication PMC2702170, “DNA Structure Modulates the Oligomerization Properties of the AAV Initiator Protein Rep68” (PLoS Pathogens, 2009).

The target in data set [1] is T1, Rep68 (Adeno-associated virus 2 (AAV2), UniProt P03132 1-536). Description: fluorescence anisotropy; Anisotropy: 20 mM HEPES pH 7.5, 50 mM NaCl, 5 nM DNA, 20 C, 15 min. SEC: 25 mM Tris-HCl pH 8.0 (4 C), 200 mM NaCl, 5% glycerol, 1 mM TCEP, 16.6 uM protein, 30 min on ice. The following applies: protein: recombinant; tags: untagged (His6-PreScission tag removed); chain copies: 16; label: 5' 6-carboxyfluorescein.

For data set [2], the target named is T2, Rep40 (Adeno-associated virus 2 (AAV2), UniProt Q89269 1-312).
T2 sequence: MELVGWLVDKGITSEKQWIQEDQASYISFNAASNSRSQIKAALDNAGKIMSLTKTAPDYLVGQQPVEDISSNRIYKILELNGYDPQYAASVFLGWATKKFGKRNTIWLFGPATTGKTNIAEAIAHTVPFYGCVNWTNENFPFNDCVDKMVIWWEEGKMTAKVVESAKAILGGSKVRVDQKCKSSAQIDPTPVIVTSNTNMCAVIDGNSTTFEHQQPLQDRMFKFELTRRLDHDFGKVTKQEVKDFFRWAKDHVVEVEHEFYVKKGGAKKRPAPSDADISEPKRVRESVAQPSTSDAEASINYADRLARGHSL
Described as above. The following applies: protein: recombinant; label: 5' 6-carboxyfluorescein.

In data set [3] the target is T3, OID (OID-N208) (Adeno-associated virus 2 (AAV2), UniProt P03132 1-208). The data set is described as above. The following applies: protein: recombinant; chain copies: 2; label: 5' 6-carboxyfluorescein.
Data set [4] concerns the molecule itself. Description: cryo-EM structure; Rep68-heteroduplex complex purified by size-exclusion chromatography; 2D classification of a limited number of end views. A general note: SEC sorts molecules by how far they enter the pores of the column.
Data set [5] concerns the molecule itself. Description: cryo-EM structure; Rep68-ssDNA complex purified on Superose 6, about 0.4 mg/ml; 0.05% n-octyl β-D-glucopyranoside for side views; reference-free 2D alignment and classification only (no 3D map).
Data set [6] concerns the molecule itself. Description: AUC; with RBS dsDNA; sedimentation velocity (Rep68 1 mg/ml, 2.8 µM RBS dsDNA, buffer A, 45,000 rpm, 20°C) and sedimentation equilibrium (complex purified by gel filtration, OD260 0.25 or 0.75; 4,000, 5,000 and 7,000 rpm, 20°C).
Data set [7] deals with the molecule itself. Description: SEC; Superose 6 10/300 GL, buffer A (25 mM Tris-HCl pH 8.0, 200 mM NaCl, 5% glycerol, 1 mM TCEP); Rep protein 16.6 µM incubated with 2.8 µM ssDNA (polydT25) 30 min on ice; also with 1 mM ATP, ATP/CaCl2 or ATP/MgCl2 added (same complex).
For data set [8], the target named is T3, OID (OID-N208). Description: size exclusion chromatography; 2.8 or 16.6 uM RBS dsDNA, 200 mM NaCl; Anisotropy: 20 mM HEPES pH 7.5, 50 mM NaCl, 5 nM DNA, 20 C, 15 min. SEC: 25 mM Tris-HCl pH 8.0 (4 C), 200 mM NaCl, 5% glycerol, 1 mM TCEP, 16.6 uM protein, 30 min on ice. As to conditions: protein: recombinant; chain copies: 2; blunt.
The target of data set [9] is T1, Rep68. Description: size exclusion chromatography; sedimentation velocity; SAXS; apparent ~578 kDa; five Rep68 subunits; Anisotropy: 20 mM HEPES pH 7.5, 50 mM NaCl, 5 nM DNA, 20 C, 15 min. SEC: 25 mM Tris-HCl pH 8.0 (4 C), 200 mM NaCl, 5% glycerol, 1 mM TCEP, 16.6 uM protein, 30 min on ice. The following applies: protein: recombinant; tags: untagged (His6-PreScission tag removed); chain copies: 5; blunt.

The next data set addresses His-Rep68 WT (Adeno-associated virus 2 (AAV2), UniProt P03132 1-536). Description: size exclusion chromatography; somewhat less efficient than untagged; Anisotropy: 20 mM HEPES pH 7.5, 50 mM NaCl, 5 nM DNA, 20 C, 15 min. SEC: 25 mM Tris-HCl pH 8.0 (4 C), 200 mM NaCl, 5% glycerol, 1 mM TCEP, 16.6 uM protein, 30 min on ice. As to conditions: protein: recombinant; tags: N-terminal His6-PreScission site; chain copies: 16.

For data set [10], the target named is T2, Rep40. Description: size exclusion chromatography; 2.8 or 16.6 uM ssDNA, 200 mM NaCl; ssDNA elutes free; Anisotropy: 20 mM HEPES pH 7.5, 50 mM NaCl, 5 nM DNA, 20 C, 15 min. SEC: 25 mM Tris-HCl pH 8.0 (4 C), 200 mM NaCl, 5% glycerol, 1 mM TCEP, 16.6 uM protein, 30 min on ice. The following applies: protein: recombinant.
Data set [11] addresses T3, OID (OID-N208). The description is as above. As to conditions: protein: recombinant; chain copies: 2.
In data set [12] the target is T1, Rep68. Description: size exclusion chromatography; sedimentation velocity; SAXS; cryo-EM; no nucleotide; apparent ~2.3 MDa; Anisotropy: 20 mM HEPES pH 7.5, 50 mM NaCl, 5 nM DNA, 20 C, 15 min. SEC: 25 mM Tris-HCl pH 8.0 (4 C), 200 mM NaCl, 5% glycerol, 1 mM TCEP, 16.6 uM protein, 30 min on ice. As to conditions: protein: recombinant; tags: untagged (His6-PreScission tag removed); chain copies: 16.

By Kd is commonly meant the free concentration of one partner at which half of the binding sites on the other are occupied at equilibrium, for simple one-to-one binding. For the molecule TTTTTTTTTTTTTTTTTTTTTTTTTTTTTTTTTTTTTT (ssDNA) [poly-dT38 5'-FAM], the values for the equilibrium dissociation constant (Kd) with Rep68 [1], with Rep40 [2] and with OID (OID-N208) [3] were 23 nM, ~3500 nM and ~130 nM, respectively.

B1: Rep68 (adeno-associated virus 2), non-tagged (natural protein)
chain: MPGFYEIVIKVPSDLDGHLPGISDSFVNWVAEKEWELPPDSDMDLNLIEQAPLTVAEKLQRDFLTEWRRVSKAPEALFFVQFEKGESYFHMHVLVETTGVKSMVLGRFLSQIREKLIQRIYRGIEPTLPNWFAVTKTRNGAGGGNKVVDECYIPNYLLPKTQPELQWAWTNMEQYLSACLNLTERKRLVAQHLTHVSQTQEQNKENQNPNSDAPVIRSKTSARYMELVGWLVDKGITSEKQWIQEDQASYISFNAASNSRSQIKAALDNAGKIMSLTKTAPDYLVGQQPVEDISSNRIYKILELNGYDPQYAASVFLGWATKKFGKRNTIWLFGPATTGKTNIAEAIAHTVPFYGCVNWTNENFPFNDCVDKMVIWWEEGKMTAKVVESAKAILGGSKVRVDQKCKSSAQIDPTPVIVTSNTNMCAVIDGNSTTFEHQQPLQDRMFKFELTRRLDHDFGKVTKQEVKDFFRWAKDHVVEVEHEFYVKKGGAKKRPAPSDADISEPKRVRESVAQPSTSDAEASINYADRLARGHSL
notes: Rep68 protein of adeno-associated virus 2 (AAV2), GenBank AAC03774; Expressed as His6-PreScission site-Rep68; the His-PP tag was removed with PreScission protease; also called untagged Rep68; non-tagged Rep68; source: E. coli BL21(DE3)pLysS, purified (Ni column, PreScission cleavage, second Ni column, Superdex 200 gel filtration); not shown: His6, N-terminal, cleaved
By stoichiometry N is commonly meant the number of molecules, sites or subunits per partner or assembly. Consider B1, for which the “stoichiometry N” value in data set [4] came to 8; in data set [5] it was 16; in data set [6], 5.

B2: His-Rep68 K404A (natural protein)
chain: MPGFYEIVIKVPSDLDGHLPGISDSFVNWVAEKEWELPPDSDMDLNLIEQAPLTVAEKLQRDFLTEWRRVSKAPEALFFVQFEKGESYFHMHVLVETTGVKSMVLGRFLSQIREKLIQRIYRGIEPTLPNWFAVTKTRNGAGGGNKVVDECYIPNYLLPKTQPELQWAWTNMEQYLSACLNLTERKRLVAQHLTHVSQTQEQNKENQNPNSDAPVIRSKTSARYMELVGWLVDKGITSEKQWIQEDQASYISFNAASNSRSQIKAALDNAGKIMSLTKTAPDYLVGQQPVEDISSNRIYKILELNGYDPQYAASVFLGWATKKFGKRNTIWLFGPATTGKTNIAEAIAHTVPFYGCVNWTNENFPFNDCVDKMVIWWEEGKMTAKVVESAKAILGGSKVRVDQACKSSAQIDPTPVIVTSNTNMCAVIDGNSTTFEHQQPLQDRMFKFELTRRLDHDFGKVTKQEVKDFFRWAKDHVVEVEHEFYVKKGGAKKRPAPSDADISEPKRVRESVAQPSTSDAEASINYADRLARGHSL
notes: Rep68 protein of adeno-associated virus 2 (AAV2), GenBank AAC03774, with K404A; source: E. coli BL21(DE3)pLysS, purified (Ni column, Superdex 200 gel filtration); not shown: His6, N-terminal, kept
As for B2, the binding result in data set [7] is on record as “binds”.

B3: His-Rep68 K406A (natural protein)
chain: MPGFYEIVIKVPSDLDGHLPGISDSFVNWVAEKEWELPPDSDMDLNLIEQAPLTVAEKLQRDFLTEWRRVSKAPEALFFVQFEKGESYFHMHVLVETTGVKSMVLGRFLSQIREKLIQRIYRGIEPTLPNWFAVTKTRNGAGGGNKVVDECYIPNYLLPKTQPELQWAWTNMEQYLSACLNLTERKRLVAQHLTHVSQTQEQNKENQNPNSDAPVIRSKTSARYMELVGWLVDKGITSEKQWIQEDQASYISFNAASNSRSQIKAALDNAGKIMSLTKTAPDYLVGQQPVEDISSNRIYKILELNGYDPQYAASVFLGWATKKFGKRNTIWLFGPATTGKTNIAEAIAHTVPFYGCVNWTNENFPFNDCVDKMVIWWEEGKMTAKVVESAKAILGGSKVRVDQKCASSAQIDPTPVIVTSNTNMCAVIDGNSTTFEHQQPLQDRMFKFELTRRLDHDFGKVTKQEVKDFFRWAKDHVVEVEHEFYVKKGGAKKRPAPSDADISEPKRVRESVAQPSTSDAEASINYADRLARGHSL
notes: Rep68 protein of adeno-associated virus 2 (AAV2), GenBank AAC03774, with K406A; source: E. coli BL21(DE3)pLysS, purified (Ni column, Superdex 200 gel filtration); not shown: His6, N-terminal, kept
Regarding B3, in data set [7], the binding result is reported as “binds”.

B4: RBS dsDNA (JM-2/JM-20) (dsDNA)
DNA 1: GCCTCAGTGAGCGAGCGAGCGCGCAGAG
DNA 2: CTCTGCGCGCTCGCTCGCTCACTGAGGC
B4: the binding result in the data set with OID (OID-N208) [8] and in the data set with Rep68 [9] was “binds” throughout.

For the molecule TTTTTTTTTTTTTTTTTTTTTTTTT (ssDNA) [poly-dT25 ssDNA], the binding result in the data set with His-Rep68 WT is listed as “binds”; with Rep40 [10], “no binding”; with OID (OID-N208) [11] it was “no binding”; in the data set with Rep68 [12], “binds”.
